From PMC12001115, “Double prenylation of budding yeast Ykt6 regulates cell wall integrity and autophagy” (The Journal of Biological Chemistry, 2025) come the findings set out here.

This assay addresses T1, Ecm9 (recombinant, subunit of yeast GGT3) (budding yeast (S. cerevisiae), UniProt Q02202 1-377).
T1 construct: Ecm9, budding yeast; no tag is named for this chain; also called recombinant yeast GGT3 α subunit
T1 sequence (looked up): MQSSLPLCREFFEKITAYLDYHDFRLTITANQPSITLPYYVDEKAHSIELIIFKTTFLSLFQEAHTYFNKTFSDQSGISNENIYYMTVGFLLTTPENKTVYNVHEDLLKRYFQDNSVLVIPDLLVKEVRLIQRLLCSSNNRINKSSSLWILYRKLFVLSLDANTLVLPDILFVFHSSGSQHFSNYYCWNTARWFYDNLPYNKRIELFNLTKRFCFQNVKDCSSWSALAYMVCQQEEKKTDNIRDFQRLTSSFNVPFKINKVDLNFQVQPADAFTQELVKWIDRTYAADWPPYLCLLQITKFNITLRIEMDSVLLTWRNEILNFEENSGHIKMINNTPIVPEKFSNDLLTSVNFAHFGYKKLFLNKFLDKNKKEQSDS
The assay can be described thus: SEC; Ecm9 and GST-Bet2 co-expressed in ExpiSf cells and co-purified (glutathione Sepharose, GST cleaved, MonoQ), then Superdex 200 Increase gel filtration in buffer A (50 mM HEPES-KOH pH 7.4, 50 mM NaCl, 5 mM MgCl2, 1 mM DTT); SDS-PAGE with Coomassie staining. The settings on record: both partners purified.

B1: Bet2 (recombinant, subunit of yeast GGT3) (natural protein, budding yeast (S. cerevisiae), UniProt P20133 1-325, looked up)
chain: MSGSLTLLKEKHIRYIESLDTKKHNFEYWLTEHLRLNGIYWGLTALCVLDSPETFVKEEVISFVLSCWDDKYGAFAPFPRHDAHLLTTLSAVQILATYDALDVLGKDRKVRLISFIRGNQLEDGSFQGDRFGEVDTRFVYTALSALSILGELTSEVVDPAVDFVLKCYNFDGGFGLCPNAESHAAQAFTCLGALAIANKLDMLSDDQLEEIGWWLCERQLPEGGLNGRPSKLPDVCYSWWVLSSLAIIGRLDWINYEKLTEFILKCQDEKKGGISDRPENEVDVFHTVFGVAGLSLMGYDNLVPIDPIYCMPKSVTSKFKKYPYK
notes: Bet2, budding yeast; also called GST-BET2; recombinant yeast GGT3 β subunit; not shown: GST, N-terminal, cleaved
For the molecule B1, the binding result is “binds”.
